# Assay results reported in patent US9428783B2, “DNA encoding dipeptide-synthesizing enzyme (variants), bacterium belonging to the genus Escherichia, and methods for producing dipeptides using thereof” (Ajinomoto Co., Inc., priority 2012, dated 2016).
# B1: BBR47_51900: L-amino acid α-ligase (hypothetical protein) from Brevibacillus brevis NBRC 100599, SEQ ID NO: 2 (protein)
# chain: MNKHFLFVEANTTGTGMLAMKKARKLGFTPVFFTEKPERYHGLNELECHVVVTDTNSQAELTDSVAQVSKEGREIAGIMSTSDYYLESVAKLARKFGWISNSLEAIEACRNKAIFREKLQRHQVSQPTFLAISSMEQLLEARSSISLPCVVKPADDSGSNNVRLCFSWDEVEHMAAEILAIKYNARGQETARTVLLEQYAEGPEFSVETFSWQGQCFVIGITQKRLTGYPFFVEAGHIFPAPLSVEEKQEIERTVERALAAVKYQFGAAHTEVKWTSAGCVVIEVNARLAGGMIPELVRRSTGIDLLLQQIRCAAGLEPELSQTIEEQRCAGIHFLVSESQGTFGGIKGMDTVRNLPGIAEVAIHAKIGQNVQPPQNFSHRLGYVIVEGKHYSETAELIEQVKDSLSVQVGQQLESGV
# modifications: Brevibacillus brevis NBRC 100599
# B2: DES: pyridoxal-phosphate dependent enzyme from Desmospora sp. 8437, SEQ ID NO: 6; tested as MBP fused His6-tagged DES (protein)
# chain: MKKKLLFVEGNTTGTGILALEKARKLGYEPVFLTQEASRYDGLPEAKCRVHVTVTDSIHELKRCVSQEKAEAVAGILTTSDYYLEISAKLVQELGLTGNSPQAIHLCRNKALYREKLRSKSVPQPNFHIIRSMEDLRETRESVPLPCLVKPADDSGSNNVRLCFSWGEVEQLTSKILKIERNARGQKTSQTVLLEEYIEGPEYSVEMFSWQGKSTCIGITEKQLTGYPYFVESGHVFPAVLPTDVQQEIEKTVKQSLEAVHFQFGASHSEVKWTPNGCVMIETNARLAGGMIPELVRHSTGVDLIEQQILCAAGVAPHWKQVVPTGCSGIHFIVAAEAGRLSSVDNLEAVRKLPGVEEMMVKAQVGQAVQPPKNFSDRLGHVIVSGKSYEEVVERLHKISNMISLKIS
# modifications: MBP fusion, His6 tag; Desmospora sp. 8437
# Experiments:
# Assay type in all cases: biochemical
# [1] = Enzymatic production of Asp-Phe using ATP regeneration system; settings: 0.15 U enzyme, 100 mM L-AspNa, 100 mM L-Phe, 37° C.
# Protocol: The product yield of Asp-Phe was studied in the reaction mixture of BBR47_51900 and Staur_4851 containing phosphoenolpyruvate and pyruvate kinase for regeneration of ATP in order to prevent highly concentrated ATP from inhibiting the enzyme reaction. The composition of the reaction mixture of total volume of 1 ml was as follows.
# Reactions were carried out at 37° C. for 1-48 hours. 100 μL out of the 1 mL reaction mixture was sampled at each reaction time. Each reaction mixture, into which 10 μL of 1 M EDTA (pH9.0) was added to stop the reaction, was subjected to HPLC analysis. The condition was as described in Example 4. As a result, BBR47_51900 and Staur_4851 could produce Asp-Phe in the ATP regeneration system (Table 9).
# [2] = LC-QTOF/MS/MS determination of dipeptides synthesized; settings: reaction mixtures of Example 4
# Text: Samples of reaction mixtures and standard solutions obtained as described in Example 4 were subjected to LC-QTOF/MS/MS analysis.
# The conditions were as follows:
# Equipment: LC (Agilent1200SL), MS (Micromass Q-TOF Premier)
# Column: Develosil C30 2.0×250 mm, 3 μm (Nomura Chemical).
# Buffers: • A: H2O (0.025% Formic acid), • B: CH3CN (0.025% Formic acid).
# [3] = Preliminary analysis of substrate specificity by TLC; settings: 4 μg enzyme, 10 mM each amino acid, 10 mM ATP, pH 8.0, 32° C., 15 hours
# Text: The substrate specificity of BBR47_51900 and Staur_4851 was studied in the reaction mixture containing the enzyme and canonical L-amino acids such as L-alanine, L-arginine, L-asparagine, L-aspartic acid, L-cysteine, glycine, L-glutamic acid, L-glutamine, L-histidine, L-isoleucine, L-leucine, L-lysine, L-methionine, L-phenylalanine, L-proline, L-serine, L-threonine, L-tryptophan, L-tyrosine, and L-valine, or salts thereof, of the same or two different kinds. The composition of the reaction mixture of total volume of 50 μL was as follows unless otherwise noted:
# Reactions were carried out at 32° C. for 15 hours. 1-2 μL of reaction mixture was subjected to thin layer chromatography (TLC) analysis using as mobile phase the mixture of 2-propanol:acetone:250 mM ammonia:H2O as 100:100:12:28. […] Detection was performed at 540 nm. The new spots on TLC-plates were detected after developing the reaction mixtures, which contained: […]
# [4] = HPLC determination of dipeptides synthesized by the enzymes; settings: 160 μg enzyme, 10 mM substrates, 10 mM ATP, pH 9.0, 32° C., 15 hours
# Protocol: Dipeptides synthesized by BBR47_51900 and Staur_4851 were determined using HPLC analysis of reaction mixtures of total volume of 400 μL, which contained:
# Reactions were carried out at 32° C. for 15 hours. Then […] of reaction mixture was filtered through the Amicon Ultra-0.5 mL, 3K Centrifugal Filters (Millipore, #UFC500396) and subjected to HPLC analysis.
# The conditions were as follows: • Equipment: HITACHI L-2000 series. • Column: Inertsil ODS-3 4.6×250 mm, […] (GL Sciences Inc.). • Temperature: 40° C. • Buffers:
# A (for mixture L-Asp/L-Val and L-Glu/L-Val): 0.1 M KH2PO4 (pH 2.2)+5 mM octanesulfonate, sodium salt: CH3CN as 4:1 (v/v),
# B (for mixture L-Asp/L-Phe): 0.1 M KH2PO4 (pH 2.2)+5 mM octanesulfonate, sodium salt: CH3CN as 7:3 (v/v),
# C (for mixture L-Asp/L-PheOMe, L-Asp/L-Trp, and L-Val/L-Val): 0.1 M KH2PO4 (pH 2.2)+5 mM octanesulfonate, sodium salt:CH3CN as 3:2 (v/v),
# D (for mixture L-Phe/L-Phe): 0.1 M KH2PO4 (pH 2.2)+5 mM octanesulfonate, sodium salt: CH3CN as 1:1 (v/v). • Gradient profile: isocratic. • Flow rate: 1.5 mL/min. • Injection volume: 10 μL. • Detection: UV 210 nm.
# Solution of αGlu-Val, γGlu-Val, αAsp-Val (10 mM each) and αAsp-Phe, βAsp-Phe (5 mM each) were prepared for HPLC analysis. The concentration of a dipeptide formed was determined using corresponding calibration curves. Each solution with standard sample was diluted to 50-folds or 100-folds for LC-QTOF/MS/MS analysis (Example 5).
# [5] = Asp-Phe synthesizing activity of MBP fused His6-tagged DES; settings: 160 μg DES, 100 mM L-Asp, 100 mM L-Phe, 10 mM ATP, pH 9.0, 37° C., 15 hours
# Protocol: Dipeptides synthesized by MBP fused His6-tagged DES were determined using HPLC analysis of reaction mixture of total volume of 400 μL, which contained:
# Reactions were carried out at 37° C. for 15 hours. Then the reaction mixture, into which 10 μl of 1 M EDTA, pH9.0 was added to stop the enzymatic reaction, was subjected to HPLC analysis. The conditions were as described in Example 4. As a result, DES catalyzes formation of 0.30 mM Asp-Phe.
Molecule,Asp-Phe ([1]; 1 hr) [mM],Asp-Phe ([1]; 2 hr) [mM],Asp-Phe ([1]; 4 hr) [mM],Asp-Phe ([1]; 8 hr) [mM],Asp-Phe ([1]; 24 hr) [mM],Asp-Phe ([1]; 48 hr) [mM],Dipeptides whose formation is catalyzed (LC-QTOF/MS/MS) [2],L-amino acid pairs giving new spots on TLC-plates (ligation) [3],Dipeptides (mM) Asp-Phe [4] [mM],Dipeptides (mM) Asp-PheOMe [4] [mM],Dipeptides (mM) Asp-Trp [4] [mM],Dipeptides (mM) Asp-Val [4] [mM],Dipeptides (mM) Glu-Val [4] [mM],Asp-Phe formed [5] [mM]
B1,7,13,24,40,68,74,"αAsp-Phe, αAsp-Val, and αGlu-Val","L-Glu/L-Glu, or L-Glu/L-Asp, or L-Glu/L-Val, or L-Glu/L-Ile, or L-Asp/L-Ile, or L-Asp/L-Val",1.22,0.03,0.13,3.9,1.48,
B2,,,,,,,,,,,,,,0.30
